This note sets out measurements from patent US20240398942A1, “USE OF ANTI-CD40 ANTIBODY” (CHIA TAI TIANQING PHARMACEUTICAL GROUP CO., LTD., priority 2021, published 2024).

Series [1] deals with CD40 signal transduction in 293T-NF-κB-Luc-CD40 cells. Put plainly: Cell-based reporter assay. Further details: species or system human. The settings on record: in words, FIGS. 2A-2C and 7. The text has this: The agonistic activity of the anti-CD40 antibody of the present application was further determined in a CD40 expression reporter cell line 293T-NF-κB-Luc-CD40, which stably expresses full-length human CD40 (uniprot No. P25942-1, SEQ ID NO: 30). According to the instructions of lipofectamine 3000 transfection reagent (Thermo Fisher), a pGL4.32 [luc2P NF-κB-RE Hygro] vector (Promega, GenBank® Accession No. EU581860) and a pCMV-T-P plasmid (with a CD40 coding sequence inserted between the EcoRI and Khal loci) were transfected into 293T cells in sequence to prepare 293T-NF-κB-Luc-CD40 cells.
Briefly, 293T-NF-κB-Luc-CD40 cells at the log phase were resuspended in DMEM medium (Gibco Inc., Cat. No. 10566-016) containing 10% of FBS (Gibco Inc., Cat. No. 10099-141), and seeded on a 384-well plate (Corning, Cat. No. 3707) at 20 μL/well (containing 5×10^3 cells). Then, the anti-CD40 antibody of the present application or the controls (including an in-house prepared anti-CD22 antibody as a negative control) serially 3-fold diluted from 200 nM in the medium was added at 20 μL per well and incubated at 37° C. for 6 h. […] The chemiluminescence values were measured using Tecan Infinit® 200 Pro. Data were analyzed using Graphpad Prism software, and EC50 values were obtained.
(In a reporter assay the amount or activity of a reporter protein is the signal.)

Series [2] deals with binding of CD40 to CD40L (Homo sapiens, UniProt P25942). Put plainly: Ligand blocking competitive ELISA. The settings on record: in words, FIG. 5. How it is done:
The ability of the anti-CD40 antibody to block the binding of CD40 to CD40L was determined by competitive ELISA. Briefly, a human CD40-Fc protein (amino acid residues 21-193 of SEQ ID NO: 30 linked to the N terminus of amino acid residues 99-330 of SEQ ID NO: 28) dissolved in the immobilization buffer (carbonate/bicarbonate buffer) at a concentration of 2 μg/mL was immobilized on a 96-well plate at 100 μL/well and incubated overnight at 4° C. The next day, the plate was washed once with a washing buffer (PBS+0.05% v/v of Tween-20, PBST) before a PBST containing 5% w/v of skim milk was added. The plate was then incubated at 37° C. for 2 h for blocking. The plate was then washed 4 times with the washing buffer.
The anti-CD40 antibody of the present application or the benchmark was serially 5-fold diluted from 200 nM in a PBST containing 2.5% w/v of skim milk, and the serially diluted anti-CD40 antibody or benchmark was added at 100 μL/well to a plate coated with CD40-Fc protein and incubated at 37° C. for 40 min. […] The absorbance of each well was read on a microplate reader using the dual wavelength mode (TMB detection wavelength: 450 nm, reference wavelength: 630 nm). […] Data were analyzed using Graphpad Prism software, and IC50 values were obtained.
A general note: ELISA stands for enzyme-linked immunosorbent assay.

Series [3] concerns human B-cell lymphoma Ramos cells. Put plainly: Efficacy of anti-CD40 antibody and anlotinib, Ramos subcutaneous xenograft mouse model. The class given is in vivo. On the procedure:
Human B-cell lymphoma Ramos cells (purchased from the Cell Bank of the Chinese Academy of Sciences) were cultured in an RPMI1640 medium containing 10% of fetal bovine serum and penicillin-streptomycin. The cells were inoculated in a 37° C./5% CO2 incubator until the logarithmic growth phase and collected for grafting.
The mice used in this study were NOD-Scid mice (purchased from Shanghai Lingchang Biotechnology Co., Ltd.) aged about 6 weeks and bred in specific pathogen-free conditions in 12/12-hour light/dark cycles. The health status of the animals was monitored daily.
Each mouse was inoculated subcutaneously with 1×10^7 Ramos cells. When the tumor grew to 80-100 mm^3, the mice were divided into groups of 10 according to the tumor volume. The administration regimen is shown in Table 10, with the first dosing day designated as DO. Antibody huC1H1-V2 and IgG2 (Biointron, Cat. No. B107803) were both formulated to desired concentrations with normal saline, and anlotinib dihydrochloride was formulated at desired concentrations with distilled water. At the end of study (D14), the animals were sacrificed by CO2 anesthesia and dissected to give the tumors. The tumors were photographed.
The tumor diameters were measured twice weekly with a vernier caliper. Tumor volume (V)=½×a×b^2, wherein a and b denote length and width, respectively; T/C (%)=(T−T0)/(C−C0)×100, wherein T and C refer to the tumor volumes of the treatment group and the IgG2 control group on day 14, respectively, and TO and C0 refer to the tumor volumes of the treatment group and IgG2 control group on day 0, respectively; the tumor growth inhibition % (TGI %)=100−T/C (%). When the tumor regressed, the tumor growth inhibition % (TGI %)=100−(T−T0)/T0×100. If the tumor volume was smaller than the initial volume, i.e., T<T0 or C<C0, the outcome was defined as partial regression (PR); if the tumors completely disappeared, i.e., the outcome was defined as complete regression (CR).

Sequence of binding of CD40 to CD40L (P25942 21-193): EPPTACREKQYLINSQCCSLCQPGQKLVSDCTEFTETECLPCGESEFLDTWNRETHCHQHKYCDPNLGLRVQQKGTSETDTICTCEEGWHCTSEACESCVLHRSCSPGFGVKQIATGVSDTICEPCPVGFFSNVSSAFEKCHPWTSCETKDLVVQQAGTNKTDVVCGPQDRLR

B1: huC1H1-V1: humanized C1H1 anti-CD40 antibody, VH SEQ ID NO: 20 X1=A, VL SEQ ID NO: 24 X1=K X2=F, human IgG2/κ (antibody, V domains shown)
VH: EVQLVESGGGLVKPGGSLRLSCAASGFTFSNYGISWVRQAPGKGLEWVXSISSGGDNTYYPDNVKGRFTISRDNAKNSLYLQMNSLRAEDTAVYYCARAGEKAMDYWGQGTLVTVSS
VL: EIVLTQSPATLSLSPGERATLSCRASQTINNNLHWYQQKPGQAPRLLIXYASQSISGIPARFSGSGSGTDFTLTISSLEPEDFAVYXCQQFSSWPLTFGGGTKVEIK
modifications: not fully specified; human IgG2/kappa constant regions; VH of huC1H1-V1 to huC1H1-V4; VARIANT 49 X can be A or S; VL of huC1H1-V1 to huC1H1-V4; VARIANT 49 X can be K or Y; VARIANT 87 X can be F or Y
As to B1, in series [1], the “Agonistic activity (activation of CD40 signal transduction)” value was “higher than those of BM1 and BM2”. Moreover, the “Blocking of the binding of CD40 to CD40L” value in series [2] was “comparable or slightly lower blocking activity relative to BM1 and BM2”.

B2: huC1H1-V2: humanized C1H1 anti-CD40 antibody, VH SEQ ID NO: 20 X1=S, VL SEQ ID NO: 24 X1=K X2=F, human IgG2/κ (antibody, V domains shown)
VH: EVQLVESGGGLVKPGGSLRLSCAASGFTFSNYGISWVRQAPGKGLEWVXSISSGGDNTYYPDNVKGRFTISRDNAKNSLYLQMNSLRAEDTAVYYCARAGEKAMDYWGQGTLVTVSS
VL: EIVLTQSPATLSLSPGERATLSCRASQTINNNLHWYQQKPGQAPRLLIXYASQSISGIPARFSGSGSGTDFTLTISSLEPEDFAVYXCQQFSSWPLTFGGGTKVEIK
modifications: not fully specified; variable positions X1=S; VL X1=K X2=F; IgG2/kappa constant; VH of huC1H1-V1 to huC1H1-V4; VARIANT 49 X can be A or S; VL of huC1H1-V1 to huC1H1-V4; VARIANT 49 X can be K or Y; VARIANT 87 X can be F or Y
Turning to B2, the “Agonistic activity (activation of CD40 signal transduction)” value in series [1] was “higher than those of BM1 and BM2”. Besides, the “Blocking of the binding of CD40 to CD40L” value in series [2] was “comparable or slightly lower blocking activity relative to BM1 and BM2”. Besides, in series [3] (baseline, huC1H1-V2 0.5 mg/kg i.p. once every 2 days × 8, anlotinib dihydrochloride 1 mg/kg intragastric daily × 15), the “Mean tumor volume (mean ± SD) D 0” value is 89.3 ± 0.8 mm^3. In addition, in series [3] (huC1H1-V2 0.5 mg/kg i.p. once every 2 days × 8, anlotinib dihydrochloride 1 mg/kg intragastric daily × 15), the “Mean tumor volume (mean ± SD) D 14” value was 1546.7 ± 198.5 mm^3. In series [3] (huC1H1-V2 0.5 mg/kg i.p., anlotinib dihydrochloride 1 mg/kg intragastric), the “TGI D 14 (tumor growth inhibition rate)” value was 58%. Moreover, in series [3] (huC1H1-V2 0.5 mg/kg i.p., anlotinib dihydrochloride 1 mg/kg intragastric, tumor-bearing mice), the “Tolerability (symptoms such as weight loss)” value was “well tolerated”. In addition, the “T/C D 14” value in series [3] (vs IgG2 group, huC1H1-V2 0.5 mg/kg i.p., anlotinib dihydrochloride 1 mg/kg intragastric) was 42%.
